From publication doi:10.1101/2024.02.08.579498 (bioRxiv, 2024)

T1: TrwE/VirB10 (plasmid R388, UniProt O50337 1-395)
T1 sequence: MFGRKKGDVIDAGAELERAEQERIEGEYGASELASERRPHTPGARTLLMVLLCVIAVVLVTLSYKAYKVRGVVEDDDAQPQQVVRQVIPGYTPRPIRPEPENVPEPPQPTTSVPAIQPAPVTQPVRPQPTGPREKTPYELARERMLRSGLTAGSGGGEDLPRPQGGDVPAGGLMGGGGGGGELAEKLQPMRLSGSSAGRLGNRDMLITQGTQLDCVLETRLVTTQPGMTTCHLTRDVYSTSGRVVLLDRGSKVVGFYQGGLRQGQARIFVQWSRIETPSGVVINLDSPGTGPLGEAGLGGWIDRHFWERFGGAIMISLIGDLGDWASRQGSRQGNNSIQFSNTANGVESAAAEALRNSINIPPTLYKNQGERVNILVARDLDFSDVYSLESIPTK

B1: TrwF/VirB9 (natural protein, plasmid R388)
chain: LDVPSSSRYDHRIRYVTYNPADVVQVDTVLGVATHIMLEEGEQYLTHAFGIPKPMPLPGRAGIFLSSRTAELANTNLIVVTDRRSYKFRLQMRNDRNGAMYELAFRYPDTQARQTREANARAAVEAAFEQRVGAYYNLKYMMSGDKDIAPVNAWDDGRFTYFKFSANADLPSIYFVDAEGNESLVPRTTVGSSNNIIAVHKVNPKWMIRLGNRALAIFNEAYDPNGVPNDTGTASPAVRRVNKGGN
B2: TrwJ/VirB5 (natural protein, plasmid R388, UniProt O50331 23-226, looked up)
chain: QGIPVFDGTRALDFVQQFARMKEQLDTAKDQLAEAQRMYEAVTGGRGLGDLMRNAQLREYLPDDLRTVYDSANGGGYSGISGSINDILRDERLNGSVADMRRSIEERSRTARTTDKAVGCGPTKGHSNASRRLKDEISRTQDQKAIEELQARIAGEQAAIQNETTKLQMIAQLRQAEQALISEQRRERNMPILSSGNQGMPTIQ
B3: TrwI/VirB6 (natural protein, plasmid R388)
chain: MAFELFTPLFNKIDQTTATYVTDISSRAIAAITPVVSVGLTLGFITYGWLIIRGAVEMPVAEFLNRCLRIGIIVSIALAGGLYQGEIANAITTVPDELASALLGNPTEGASAAALVDQSAQQGFDRASEAFEEAGFFSSDGLLYGLFGIIIPAGYGPAGAIGGAFLLLAKIALALLAGLGPLFILALIWQPTHRFFDQWAQQVLNYGLLIVLFAAVFGLLMQIFGSYMADLRFDGAQNVAYAIGGSVILSIVSIVLLMQLPSIASGLAGGIGLGYMWELRSMRSGAGAAMRGGRAMARGARAAPGAARGAAVGAANMAKTVATGGAGVARAAAGYFRGRKAG
B4: TrwG/VirB8 (natural protein, plasmid R388)
chain: MSKKQPKPVKAEQLKSYYEESRGLERDLIGEFVKSRKTAWRVATASGLFGLLGMVCGIVGFSQPAPAPLVLRVDNATGAVDVVTTLREHESSYGEVVDTYWLNQYVLNREAYDYNTIQMNYDTTALLSAPAVQQDYYKLFDGSNARDRVLGNKARITVRVRSIQPNGRGQATVRFTTQQHNSNGTVERPQHQIATIGYTYIGAPMRSSDRLLNPLGFQVTSYRADPEILNN

Columns and labels:
Experiment in all cases: cryo-EM structure
TrwE/VirB10 = biological target: T1, TrwE/VirB10
TrwI/VirB6 = biological target: B3
cryo-EM structure = biological target: the molecule itself

Binder	binding result (TrwE/VirB10)	binding result (TrwI/VirB6)	stoichiometry N (cryo-EM structure)
B1	binds	–	–
B2	–	binds	–
B3	binds	–	–
B4	binds	–	24
